Test results published in the domain aggregation screens of Martell et al. (2025).

Experiment: soluble fraction after stress (log2 fold change); higher = more stays soluble; pooled small domains, quantitative proteomics
Settings: stress: 75 degC
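Note: 20 min heating vs room temperature control held 20 min.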

Sequence	soluble fraction (log2)
HMGLNEGLNEGQQKVIQHIQENEGIKVKEISLKLNMPIDTVDRHIRVLKNLNLIERRGSRKTGGYFISN	-0.461
HMGLNELQVKLNEAMQRLSLKHRTVVVMHDIEGIPHDEIAKIVGVSVGTIRSRLFYARRQLQADLGEY	-2.32
HMGLNNVSDILRLDFNSFKKKFDKLPSGYKNSVVEQAALMIKSGELDSIKIKDYIEKSMGIELDI	-0.511
HMGLQDLFLNSLRKSKTPVTMFLVKGVKLQGVVTWFDNFSVLLRRDGMSQLVYKHSISTIMP	-0.0352
HMGLSARIAQRIHGLRTAQRMSLEALAARSGVSRSMISLIERNEASPTAVVLEKIATGLNVVLAALFDTP	-1.76
HMGLSNYEFNSISQTVKEKLEQGPLTLKALVDETAHLFAEDKVVSVVQWLIDQRDLAYDDHGLLQWKG	-0.792
HMGLTLREKMGHVLEMLKGREFLPFVSLFTVEEGRIGVVVTFMSILELVKEGILDLVQTESFGPIHVKAR	-0.541
HMGMAETTARILQLLGLLQSRRGWSGQELAERLGVTTRSVRRDVERLRELGYPVHASAGHGGGYQLGA	-2.18
HMGMGDALRILFNQAMLIEREQYLQAGAYERNENPVNYANGFKAKTLNTRVGALEVAVPQTRDSAFYPSFL	0.0631
HMGMLATFVTSAKVPDDVVYAITKEVFENLDEFKKLHPALEGLTRETMLEGLTAPIHPGALKYYKEAGLM	-0.533
HMGMSQQKQSSTVRIIMQDISDANEGLMKMSQIIDAALAEGISETIVRNAISNLHRGGTIYESQTGTYQW	-0.196
HMGMTDEELNREEERVVAELEAKDEEELTIYNEEDLTFEETLDLPEGSLMRDRENGMIYLKVLDIWMPY	-0.575
HMGMTNRIKELRKAKGYRQEDLAAALGVSRQTIIAVENNKYNPTLELAMKLARHLQTTVEELFQL	-2.01
HMGMVEFEIGERDHSEDVSRKLFEAGLIEDASDFNQYMIEKKMDDHLQTGKYQIPKGATKDEILELIVR	0.043
HMGMYAEERHQAIASLARKHGRVSVAELAERFNVTSETIRRDLDSLARRGLLTRVHGGAVPVE	0.0144
HMGMYFTEMRKNEGLIALNGVAESNKRVSDLMDNLKDSSSFDAADIKAVKSGSGDASSLMDFELLVT	-0.0643
HMGNASQAARRQRIVDAALELLQDRPYDQIQMRDVAEGAGVALGTLYRYFPSKEQLFAHVLVE	-0.286
HMGNEMQVPNVAGKTVDEAIEIFNNMGLKVAAENKYAQSDDVKEGDVVKTDPSSGRNVKKGSEITLYISQG	0.375
HMGNEVMYRQDLSEQELLSFIKKYTGQDEVTHIVVGAPKQRDNTPSPVETKITPFVVQLKAQFPDVNVV	0.0976
HMGNFNDMLKYLRVREKMSQAELADKLGVSKSTVGMYELGKREPDFETLEAIADLFNVDMNFLLGK	-0.423
HMGNHMSFKMWGEQLQEAFRALETYDTQKAKTILNELVRFPIDSDITKALKGIISNIDDMMA	-0.881
HMGNLPPAVINARIKVSPAGRGVFVGFDKGSTSTEAKYADAIRGYLPNIEFNKDDHESVVTVPFNFR	-0.0124
HMGNTLAYSEFRQKVQEGAVKQVVLSEDRVTGELTNGDRFTANIVRDPELLKMLNDNNVKYDGKPT	0.154
HMGNVGEAIEALVKGFQEGNQFQTLLGVTGSGKTFTMANVIAALNKPTLIISHNKTLAAQLYLSLIHIS	0.277
HMGNYRVIKWGMQGDDVKLMQQMLINRGYVLSATGKYASRTLKAIMAFQEANGLKADGIVGKRTWNKLL	-2.78
HMGPAYEKIVANGQTFYRYNVKKGEGLMAVSRTFNVSVNDILKYNPSAASGLKDGQELLIPVIDDA	0.16
HMGPESKLTDAIKDYIYALYENLKGKSKFRNTIIEEVKKLYGVDISRESIRRVVNQKTDAETTENDDDEKA	0.432
HMGPKALLKIPGLQEVDAELLFKEGYKSISAVASADPEMLKAIPGVDEQKVTEWVTGAEQILSQQVNKGA	0.49
HMGPKPVDMSPIPEGQRNQVLHDWMYGRAANHPENWGQIRSDALERGLKSGLKADEIHAITGSVARALGLE	0.0169
HMGPNPLTEREQEILQLARTGEPVARLAKRLFLSPGTVRNHLSSAIGKLGAANRVEAAQFATERGW	0.0399
